The target in test [1] is T1, HLA-A2 (HLA-A*0201) on TAP-deficient T2 cells (human).
T1 construct: also called MHC I (HLA-A2)
The test can be described thus: T2 binding assay, flow cytometry for HLA-A2. (Flow cytometry measures light scatter and fluorescence of single cells or particles in a stream.)
Experimental: (§1) TAP-deficient T2 cells were incubated with 20 μg/ml of peptides and 3 μg/ml of β₂-microglobulin (Sigma-Aldrich, Cat # M4890) for 24 hours at 37° C. and 5% CO₂ in air. […] The binding affinity of the peptide to HLA-A2 (T2 binding index) was quantified as follows: (Mean fluorescence intensity [MFI] of HLA-A2 with peptide—MFI of HLA-A2 without peptide)/(MFI of HLA-A2 without peptide).

Test [2] has as its target T1, HLA-A2 (HLA-A*0201) on TAP-deficient T2 …. The test can be described thus: T2 cell peptide-binding assay, flow cytometry for HLA-A2.
Experimental: as §1

This is an account of results in patent US20140348902A1 (University of Texas, published 2014).

B1: TCL1 65-79 peptide (TQIGPSLLPIMWQLY) (peptide)
peptide: TQIGPSLLPIMWQLY
notes: Synthetic peptide (Sigma-Aldrich, >70% purity); also called P17
Turning to B1, in test [1], the binding result was “binds”.

B2: TCL1 71-78 peptide (LLPIMWQL) (peptide)
peptide: LLPIMWQL
notes: Synthetic peptide
In the case of B2, the binding result in test [2] is on record as “binds”.
